T1: CapZ peptide (TAMRA-TRTK) 265-276 (Homo sapiens, UniProt P52907, not fully specified)
T1 chain: {TAMRA}-TRTKIDWNKILS-NH2

B1: S100A1, P23297 (protein)
chain: MGSELETAMETLINVFHAHSGKEGDKYKLSKKELKELLQTELSGFLDAQKDVDAVDKVMKELDENGDGEVDFQEYVVLVAALTVACNNFFWENS
B2: S100B (protein)
chain: SELEKAMVALIDVFHQYSGREGDKHKLKKSELKELINNELSHFLEEIKEQEVVDKVMETLDNDGDGECDFQEFMAFVAMVTTACHEFFEHE

Assays:
[1] = target: HDM4 peptide (TAMRA-HDM4 25-43) 25-43 (Homo sapiens), O15151
[2] = target: T1, CapZ peptide (TAMRA-TRTK) 265-276; test: fluorescence polarization titration

| Binder | Kd [1] [nM] | Kd [2] [nM] |
| --- | --- | --- |
| B1 | 3670 | – |
| B2 | – | 130 |
